The text below walks through data of the supplement of paper PMC5998384.

The test system of series [1] is HeLa Kyoto. The experiment in a line: thermal stability score vs G1/S (z-score of summed log2 fold changes over temperatures); higher = more thermally stable than in G1/S.
For series [2], the system named is HeLa Kyoto. The experiment in a line: solubility change mitosis vs G1/S (difference of NP-40 vs SDS log2 ratios) (log2 ratio difference); higher = more soluble in mitosis.
In series [3] the test system is HeLa Kyoto. Description: solubility in G1/S (NP-40 vs SDS abundance) (log2 ratio); higher = more soluble. The settings on record: cell cycle stage: G1/S.
The mark [4] stands for this setting: cell cycle stage: early G1 (4.5 h after nocodazole release).
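Wherever solubility change mitosis vs G1/S (difference of NP-40 vs SDS log2 ratios) is given: synchronized HeLa Kyoto cells (double thymidine block for G1/S, nocodazole release for mitosis), protein amounts in NP-40 versus SDS lysates quantified by mass spectrometry, three biological replicates.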
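Wherever solubility in G1/S (NP-40 vs SDS abundance) is given: HeLa Kyoto cells arrested at G1/S by double thymidine block, proteins quantified by TMT10plex mass spectrometry in mild NP-40 versus SDS extracts, three biological replicates.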
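Wherever thermal stability score vs G1/S (z-score of summed log2 fold changes over temperatures) is given: synchronized HeLa Kyoto cells, proteins quantified by TMT10plex mass spectrometry, three biological replicates, mitosis taken 0.5 h after nocodazole release, G1/S directly after double thymidine block.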

MFSD12, sequence (chain, as listed by the source): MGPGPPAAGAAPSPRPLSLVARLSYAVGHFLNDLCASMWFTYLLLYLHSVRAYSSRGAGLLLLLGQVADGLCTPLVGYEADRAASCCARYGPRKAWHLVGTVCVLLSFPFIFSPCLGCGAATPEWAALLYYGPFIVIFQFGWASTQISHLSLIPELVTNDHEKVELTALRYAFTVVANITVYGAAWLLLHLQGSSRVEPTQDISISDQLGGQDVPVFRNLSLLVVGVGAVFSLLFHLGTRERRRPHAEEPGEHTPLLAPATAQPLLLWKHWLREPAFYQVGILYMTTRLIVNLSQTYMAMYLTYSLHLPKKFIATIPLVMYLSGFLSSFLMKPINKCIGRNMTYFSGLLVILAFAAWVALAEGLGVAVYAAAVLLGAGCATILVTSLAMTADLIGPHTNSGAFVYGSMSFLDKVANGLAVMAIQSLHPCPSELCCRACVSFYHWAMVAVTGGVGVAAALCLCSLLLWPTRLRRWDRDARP

Turning to “MEQAPPDPERQLQPAPLEPLGSPDAGLGAAVGKEAEGAGEESSGVDTMTHNNFWLKKIEISVSEAEKRTGRNAMNMQETYTAYLIETRSVEHTDGQSVLTDSLWRRYSEFELLRSYLLVYYPHIVVPPLPEKRAEFVWHKLSADNMDPDFVERRRIGLENFLLRIASHPILCRDKIFYLFLTQEGNWKETVNETGFQLKADSRLKALNATFRVKNPDKRFTDLKHYSDELQSVISHLLRVRARVADRLYGVYKVHGNYGRVFSEWSAIEKEMGDGLQSAGHHMDVYASSIDDILEDEEHYADQLKEYLFYAEALRAVCRKHELMQYDLEMAAQDLASKKQQCEELVTGTVRTFSLKGMTTKLFGQETPEQREARIKVLEEQINEGEQQLKSKNLEGREFVKNAWADIERFKEQKNRDLKEALISYAVMQISMCKKGIQVWTNAKECFSKM [SNX4]”, the thermal stability score in the series on HeLa Kyoto [1] (setting [4]) worked out at 0.919; with HeLa Kyoto [1] (cell cycle stage: mitosis), 0.324. In the series on HeLa Kyoto [2], the “solubility change mitosis (log2)” value was -0.0064. In addition, the “solubility in G1/S (log2)” value with HeLa Kyoto [3] was found to be 0.0889.

Take “MEREPGAAGVRRALGRRLEAVLASRSEANAVFDILAVLQSEDQEEIQEAVRTCSRLFGALLERGELFVGQLPSEEMVMTGSQGATRKYKVWMRHRYHSCCNRLGELLGHPSFQVKELALSALLKFVQLEGAHPLEKSKWEGNYLFPRELFKLVVGGLLSPEEDQSLLLSQFREYLDYDDTRYHTMQAAVDAVARVTGQHPEVPPAFWNNAFTLLSAVSLPRREPTVSSFYVKRAELWDTWKVAHLKEHRRVFQAMWLSFLKHKLPLSLYKKVLLIVHDAILPQLAQPTLMIDFLTRACDLGGALSLLALNGLFILIHKHNLEYPDFYRKLYGLLDPSVFHVKYRARFFHLADLFLSSSHLPAYLVAAFAKRLARLALTAPPEALLMVLPFICNLLRRHPACRVLVHRPHGPELDADPYDPGEEDPAQSRALESSLWELQALQRHYHPEVSKAASVINQALSMPEVSIAPLLELTAYEIFERDLKKKGPEPVPLEFIPAQGLLGRPGELCAQHFTLS [NOC4L]”: the values for the thermal stability score with HeLa Kyoto [1] (setting [4]) and with HeLa Kyoto [1] (cell cycle stage: mitosis) were -3.25e-17 and 3.03e-17, respectively. Besides, in the series on HeLa Kyoto [2], the “solubility change mitosis (log2)” value was found to be 0.579. Also, in the series on HeLa Kyoto [3], the “solubility in G1/S (log2)” value is -1.47.

On to MFSD12, for which the figures for the thermal stability score in the series on HeLa Kyoto [1] (setting [4]) and in the series on HeLa Kyoto [1] (cell cycle stage: mitosis) were 0.154 and 0.3, respectively. The “solubility change mitosis (log2)” value in the series on HeLa Kyoto [2] was -0.237. Further, the “solubility in G1/S (log2)” value in the series with HeLa Kyoto [3] is -0.246.

On to “MGAVLGVFSLASWVPCLCSGASCLLCSCCPNSKNSTVTRLIYAFILLLSTVVSYIMQRKEMETYLKKIPGFCEGGFKIHEADINADKDCDVLVGYKAVYRISFAMAIFFFVFSLLMFKVKTSKDLRAAVHNGFWFFKIAALIGIMVGSFYIPGGYFSSVWFVVGMIGAALFILIQLVLLVDFAHSWNESWVNRMEEGNPRLWYAALLSFTSAFYILSIICVGLLYTYYTKPDGCTENKFFISINLILCVVASIISIHPKIQEHQPRSGLLQSSLITLYTMYLTWSAMSNEPDRSCNPNLMSFITRITAPTLAPGNSTAVVPTPTPPSKSGSLLDSDNFIGLFVFVLCLLYSSIRTSTNSQVDKLTLSGSDSVILGDTTTSGASDEEDGQPRRAVDNEKEGVQYSYSLFHLMLCLASLYIMMTLTSWYSPDAKFQSMTSKWPAVWVKISSSWVCLLLYVWTLVAPLVLTSRDFS [SERINC3]”, for which the values for the thermal stability score in the series on HeLa Kyoto [1] (setting [4]) and with HeLa Kyoto [1] (cell cycle stage: mitosis) were -2.7 and -4.19, respectively. The “solubility change mitosis (log2)” value with HeLa Kyoto [2] was determined as 0.0994. In addition, the “solubility in G1/S (log2)” value in the series on HeLa Kyoto [3] is -0.0916.

On to “MGDKGTRVFKKASPNGKLTVYLGKRDFVDHIDLVDPVDGVVLVDPEYLKERRVYVTLTCAFRYGREDLDVLGLTFRKDLFVANVQSFPPAPEDKKPLTRLQERLIKKLGEHAYPFTFEIPPNLPCSVTLQPGPEDTGKACGVDYEVKAFCAENLEEKIHKRNSVRLVIRKVQYAPERPGPQPTAETTRQFLMSDKPLHLEASLDKEIYYHGEPISVNVHVTNNTNKTVKKIKISVRQYADICLFNTAQYKCPVAMEEADDTVAPSSTFCKVYTLTPFLANNREKRGLALDGKLKHEDTNLASSTLLREGANREILGIIVSYKVKVKLVVSRGGLLGDLASSDVAVELPFTLMHPKPKEEPPHREVPENETPVDTNLIELDTNDDDIVFEDFARQRLKGMKDDKEEEEDGTGSPQLNNR [ARRB1]”, for which the thermal stability score is -0.748 with HeLa Kyoto [1] (setting [4]) and -0.986 in the series on HeLa Kyoto [1] (cell cycle stage: mitosis). Also, the “solubility change mitosis (log2)” value in the series with HeLa Kyoto [2] is -0.0694. Also, the “solubility in G1/S (log2)” value in the series on HeLa Kyoto [3] worked out at 0.139.

Take “MGDMKTPDFDDLLAAFDIPDPTSLDAKEAIQTPSEENESPLKPPGICMDESVSLSHSGSAPDVPAVSVIVKNTSRQESFEAEKDHITPSLLHNGFRGSDLPPDPHNCGKFDSTFMNGDSARSFPGKLEPPKSEPLPTFNQFSPISSPEPEDPIKDNGFGIKPKHSDSYFPPPLGCGAVGGPVLEALAKFPVPELHMFDHFCKKEPKPEPLPLGSQQEHEQSGQNTVEPHKDPDATRFFGEALEFNSHPSNSIGESKGLARELGTCSSVPPRQRLKPAHSKLSSCVAALVALQAKRVASVTKEDQPGHTKDLSGPTKESSKGSPKMPKSPKSPRSPLEATRKSIKPSDSPRSICSDSSSKGSPSVAASSPPAIPKVRIKTIKTSSGEIKRTVTRILPDPDDPSKSPVGSPLGSAIAEAPSEMPGDEVPVEEHFPEAGTNSGSPQGARKGDESMTKASDSSSPSCSSGPRVPKGAAPGSQTGKKQQSTALQASTLAPANLLPKAVHLANLNLVPHSVAASVTAKSSVQRRSQPQLTQMSVPLVHQVKKAAPLIVEVFNKVLHSSNPVPLYAPNLSPPADSRIHVPASGYCCLECGDAFALEKSLSQHYGRRSVHIEVLCTLCSKTLLFFNKCSLLRHARDHKSKGLVMQCSQLLVKPISADQMFVSAPVNSTAPAAPAPSSSPKHGLTSGSASPPPPALPLYPDPVRLIRYSIKCLECHKQMRDYMVLAAHFQRTTEETEGLTCQVCQMLLPNQCSFCAHQRIHAHKSPYCCPECGVLCRSAYFQTHVKENCLHYARKVGYRCIHCGVVHLTLALLKSHIQERHCQVFHKCAFCPMAFKTASSTADHSATQHPTQPHRPSQLIYKCSCEMVFNKKRHIQQHFYQNVSKTQVGVFKCPECPLLFVQKPELMQHVKSTHGVPRNVDELSSLQSSADTSSSRPGSRVPTEPPATSVAARSSSLPSGRWGRPEAHRRVEARPRLRNTGWTCQECQEWVPDRESYVSHMKKSHGRTLKRYPCRQCEQSFHTPNSLRKHIRNNHDTVKKFYTCGYCTEDSPSFPRPSLLESHISLMHGIRNPDLSQTSKVKPPGGHSPQVNHLKRPVSGVGDAPGTSNGATVSSTKRHKSLFQCAKCSFATDSGLEFQSHIPQHQVDSSTAQCLLCGLCYTSASSLSRHLFIVHKVRDQEEEEEEEAAAAEMAVEVAEPEEGSGEEVPMETRENGLEECAGEPLSADPEARRLLGPAPEDDGGHNDHSQPQASQDQDSHTLSPQV [ZNF592]”: the results for the thermal stability score with HeLa Kyoto [1] (setting [4]) and in the series with HeLa Kyoto [1] (cell cycle stage: mitosis) were -0.704 and -1.78, respectively. Also, the “solubility change mitosis (log2)” value with HeLa Kyoto [2] worked out at 0.109. The “solubility in G1/S (log2)” value in the series on HeLa Kyoto [3] was -0.283.
